Measured values reported in the supplement of paper PMC6757056.
± gives the standard deviation of the averaged measurements.

B1: library; a variant is named by its letters at N, in order (parent)
chain: GCUGUCACCGGUGUAUUACCCUAGUGGUCGACCGGUCUGAUGAGUCUNNNNNNAGACGAAACAGC

Tests used:
[1] = variants of: B1; assay: normalized RNA/DNA level with ligand (relative to sTRSVctl = 100) (log10 (% of sTRSVctl)); ligand: hypoxanthine (xanthine aptamer); higher = less ribozyme self-cleavage, higher mRNA level; settings: ligand concentration (+) RNA-Seq: 5 mM, HEK293T, reporter: mCherry (pCS4076), ligand present: yes
Procedure, shortened: (§1)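 Ribozyme switch library plasmids linked to reporters were introduced into HEK293T cells at 4 µg per 6-well well, with ligand, if any, added 1 h before. Total RNA was extracted with EDTA 72 h later, reverse-transcribed, amplified, barcoded and sequenced. RNA level was computed from RNA over DNA reads relative to a spiked-in non-cleaving sequence or the top sequences, then scaled and log-transformed. The top set was 25 sequences, values were ×100 and log10, and the cutoff was ≥100 DNA reads.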

[2] = variants of: B1; assay: normalized RNA/DNA level without ligand (relative to sTRSVctl = 100) (log10 (% of sTRSVctl)); ligand: hypoxanthine (xanthine aptamer); higher = less ribozyme self-cleavage, higher mRNA level; settings: HEK293T, reporter: mCherry (pCS4076), ligand present: no
Procedure, shortened: as §1

Row | Variant | normalized RNA/DNA level with ligand (log10) [1] | normalized RNA/DNA level without ligand (log10) [2]
1 | AACUCU | 1.9 ± 0.039 | 1.898 ± 0.015
2 | AACUCC | 2 ± 0.067 | 1.922 ± 0.011
3 | AACUCA | 1.975 ± 0.012 | 1.88 ± 0.023
4 | CACUGC | 1.96 ± 0.037 | 1.909 ± 0.0035
5 | CACUGA | 1.95 ± 0.049 | 1.83 ± 0.022
6 | CACUGU | 2 ± 0.021 | 1.97 ± 0.022
7 | UAGCGC | 1.95 ± 0.023 | 1.85 ± 0.057
8 | UAGCGU | 1.88 ± 0.055 | 1.46 ± 0.12
9 | AAGACU | 1.95 ± 0.064 | 1.856 ± 0.0071
10 | GAGCGU | 1.915 ± 0.0047 | 1.647 ± 0.0019
11 | UACUAC | 1.95 ± 0.056 | 1.926 ± 0.0063
12 | UACUAU | 1.89 ± 0.027 | 1.83 ± 0.05
13 | AACGUU | 1.91 ± 0.0075 | 1.829 ± 0.017
14 | CACUUA | 1.87 ± 0.057 | 1.779 ± 0.0095
15 | CACUUG | 1.95 ± 0.1 | 1.88 ± 0.043
16 | GAGACC | 1.96 ± 0.048 | 1.82 ± 0.017
17 | UAGAGC | 1.908 ± 0.017 | 1.706 ± 0.0082
18 | UAGACG | 1.8696 ± 0.00011 | 1.642 ± 0.013
19 | UAGACU | 1.925 ± 0.0021 | 1.83 ± 0.02
20 | UAGACC | 1.976 ± 0.016 | 1.92 ± 0.0073
21 | UAGACA | 1.9 ± 0.038 | 1.857 ± 0.0097
22 | CAGCCC | 2.03 ± 0.052 | 1.94 ± 0.023
23 | CAGCCU | 2.039 ± 0.0086 | 1.91 ± 0.038
24 | CAGCCG | 1.947 ± 0.0075 | 1.88 ± 0.071

Row | Variant | normalized RNA/DNA level with ligand (log10) [1] | normalized RNA/DNA level without ligand (log10) [2]
25 | CAGCCA | 1.9708 ± 0.0019 | 1.78 ± 0.051
26 | UACUCC | 2 ± 0.058 | 1.964 ± 0.011
27 | UACUCU | 1.915 ± 0.0075 | 1.91 ± 0.026
28 | UACUCG | 1.929 ± 0.009 | 1.72 ± 0.072
29 | CACGUC | 1.98 ± 0.061 | 1.971 ± 0.005
30 | CACGUG | 1.92 ± 0.028 | 1.79 ± 0.095
31 | CACGUU | 1.96 ± 0.024 | 1.864 ± 0.0061
32 | GACUAG | 1.837 ± 0.011 | 1.47 ± 0.045
33 | GACUAC | 1.94 ± 0.026 | 1.804 ± 0.0039
34 | UACUGA | 1.95 ± 0.019 | 1.74 ± 0.02
35 | UACUGG | 1.884 ± 0.015 | 1.491 ± 0.0069
36 | UACUGC | 1.97 ± 0.072 | 1.846 ± 0.0079
37 | AACUUC | 1.96 ± 0.023 | 1.96 ± 0.023
38 | UAGCAU | 1.91 ± 0.026 | 1.772 ± 0.0045
39 | UAGCAC | 1.927 ± 0.0061 | 1.8 ± 0.018
40 | AAGCGC | 1.89 ± 0.051 | 1.6 ± 0.039
41 | UACGUC | 2.0228 ± 0.00028 | 1.94 ± 0.051
42 | UACGUU | 1.956 ± 0.0074 | 1.86 ± 0.042
43 | UACGUG | 1.86 ± 0.063 | 1.6 ± 0.009
44 | CACUAU | 1.908 ± 0.018 | 1.845 ± 0.013
45 | CACUAG | 1.901 ± 0.0088 | 1.759 ± 0.0057
46 | CACUAC | 1.9 ± 0.07 | 1.8 ± 0.034
47 | CACUCU | 1.963 ± 0.0079 | 1.91 ± 0.026
48 | CACUCC | 1.93 ± 0.021 | 1.92 ± 0.063

Row | Variant | normalized RNA/DNA level with ligand (log10) [1] | normalized RNA/DNA level without ligand (log10) [2]
49 | CACUCA | 1.93 ± 0.024 | 1.89 ± 0.033
50 | CACUCG | 1.99 ± 0.066 | 1.92 ± 0.062
51 | GAGCCU | 2.01 ± 0.028 | 1.94 ± 0.024
52 | GAGCCG | 1.85 ± 0.034 | 1.44 ± 0.021
53 | GAGCCC | 1.99 ± 0.053 | 1.906 ± 0.013
54 | GAGAUU | 1.92 ± 0.041 | 1.82 ± 0.03
55 | UAGCCU | 2 ± 0.037 | 1.953 ± 0.006
56 | UAGCCG | 1.982 ± 0.016 | 1.728 ± 0.0043
57 | UAGCCC | 1.956 ± 0.018 | 1.885 ± 0.0052
58 | UAGCCA | 1.93 ± 0.032 | 1.91 ± 0.082
59 | GAGCUC | 1.99 ± 0.045 | 1.91 ± 0.034
60 | GAGCUU | 1.92 ± 0.1 | 1.846 ± 0.0057
61 | GACUCA | 1.97 ± 0.029 | 1.892 ± 0.0056
62 | GACUCU | 1.94 ± 0.092 | 1.93 ± 0.029
63 | GACUCC | 1.989 ± 0.019 | 1.96 ± 0.04
64 | GACUUU | 1.923 ± 0.017 | 1.91 ± 0.056
65 | GACUUA | 1.88 ± 0.0036 | 1.84 ± 0.023
66 | GACUUC | 1.9476 ± 0.0019 | 1.98 ± 0.098
67 | CAGAGU | 1.97 ± 0.035 | 1.79 ± 0.056
68 | CAGAGC | 1.926 ± 0.019 | 1.74 ± 0.022
69 | UAGCUA | 1.96 ± 0.078 | 1.884 ± 0.0057
70 | UAGCUG | 1.944 ± 0.011 | 1.77 ± 0.02
71 | UAGCUC | 1.98 ± 0.034 | 2.03 ± 0.038
72 | UAGCUU | 2.003 ± 0.015 | 1.84 ± 0.024

Row | Variant | normalized RNA/DNA level with ligand (log10) [1] | normalized RNA/DNA level without ligand (log10) [2]
73 | GAGAGU | 1.87 ± 0.091 | 1.49 ± 0.029
74 | AAGCAC | 1.89 ± 0.027 | 1.69 ± 0.047
75 | AAGCAU | 1.88 ± 0.027 | 1.705 ± 0.0018
76 | GACGUG | 1.83 ± 0.095 | 1.29 ± 0.024
77 | GACGUC | 1.95 ± 0.046 | 1.85 ± 0.019
78 | AAGCCU | 1.96 ± 0.02 | 1.85 ± 0.059
79 | AAGCCC | 1.97 ± 0.032 | 1.9 ± 0.041
80 | UAGGAC | 1.934 ± 0.0064 | 1.83 ± 0.037
81 | UAGGAG | 1.872 ± 0.018 | 1.41 ± 0.04
82 | CAGCAG | 1.89 ± 0.019 | 1.68 ± 0.11
83 | CAGCAA | 1.885 ± 0.01 | 1.637 ± 0.014
84 | CAGCAC | 1.94 ± 0.035 | 1.81 ± 0.034
85 | GACUGU | 1.89 ± 0.033 | 1.8123 ± 0.00033
86 | GACUGC | 1.905 ± 0.01 | 1.66 ± 0.052
87 | AAGGAC | 1.905 ± 0.017 | 1.648 ± 0.012
88 | CAGACC | 2.04 ± 0.037 | 1.96 ± 0.045
89 | CAGACG | 1.98 ± 0.035 | 1.8 ± 0.081
90 | CAGACU | 1.92 ± 0.043 | 1.92 ± 0.022
91 | CAGAUC | 1.98 ± 0.089 | 1.91 ± 0.032
92 | CAGAUG | 1.94 ± 0.03 | 1.808 ± 0.011
93 | CAGAUU | 1.96 ± 0.024 | 1.768 ± 0.015
94 | CAGAUA | 1.88 ± 0.052 | 1.57 ± 0.043
95 | CAGGAC | 1.88 ± 0.063 | 1.782 ± 0.01
96 | CAGGAG | 1.91 ± 0.022 | 1.473 ± 0.012

Row | Variant | normalized RNA/DNA level with ligand (log10) [1] | normalized RNA/DNA level without ligand (log10) [2]
97 | UACUUC | 1.98 ± 0.05 | 2 ± 0.058
98 | UACUUA | 1.95 ± 0.026 | 1.88 ± 0.033
99 | UACUUG | 1.929 ± 0.0075 | 1.72 ± 0.064
100 | CAGCUA | 1.903 ± 0.012 | 1.65 ± 0.056
101 | CAGCUU | 1.954 ± 0.0095 | 1.86 ± 0.027
102 | CAGCUG | 1.946 ± 0.019 | 1.89 ± 0.028
103 | AAGCUC | 1.975 ± 0.002 | 1.959 ± 0.01
104 | AAGCUA | 1.91 ± 0.021 | 1.68 ± 0.056
105 | AAGCUU | 1.94 ± 0.062 | 1.86 ± 0.023
106 | GAGCAU | 1.944 ± 0.018 | 1.72 ± 0.022
107 | CAGAAU | 1.9 ± 0.034 | 1.64 ± 0.072
108 | CAGAAG | 1.9 ± 0.028 | 1.59 ± 0.021
109 | GAGGAU | 1.955 ± 0.019 | 1.7 ± 0.074
110 | CAGCGC | 2.01 ± 0.038 | 1.847 ± 0.007
111 | CAGCGA | 1.94 ± 0.027 | 1.79 ± 0.035
112 | AAGAAC | 1.9 ± 0.032 | 1.7418 ± 0.00032
113 | AAGAGC | 1.9 ± 0.046 | 1.532 ± 0.009
114 | UAGAUC | 1.964 ± 0.012 | 1.955 ± 0.018
115 | UAGAUA | 1.917 ± 0.0088 | 1.82 ± 0.071
116 | UAGAUU | 1.93 ± 0.027 | 1.866 ± 0.017
